Laboratory results from paper PMC2676315.

How the values were obtained:
Assay in all cases: other fluorescence titration; quenching of the tryptophan fluorescence of SET/TAF-Iβ polypeptides (0.2 to 4 μM; excitation 295 nm, emission 345 nm) on addition of histone; PBS, 25°C; non-linear regression; three repeats
[1] = target: SET/TAF-Iβ (1–277), GST removed (human) (UniProt Q01105)
[2] = target: SET/TAF-Iβ (76–185), GST removed (human) (UniProt Q01105)
[3] = target: SET/TAF-Iβ (110–277), GST removed (human) (UniProt Q01105)
[4] = target: SET/TAF-Iβ (76–210), GST removed (human) (UniProt Q01105)
[5] = target: SET/TAF-Iβ (1–210), GST removed (human) (UniProt Q01105)

Kd [1] | Kd [2] | Kd [3] | Kd [4] | Kd [5] | Substance
2870 nM |  |  |  |  | histone H2B (from UniProt P62808 1-126) (natural protein)
150 nM | 100 nM | 160 nM | 140 nM | 130 nM | calf thymus histone H3 (from UniProt P68432 1-136) (natural protein)
